Data on ten molecules can be found in patent publication US20250361295A1 (ANTENGENE BIOLOGICS, published 2025).

Experiment [1] has as its target T1, human LILRB4 (human, UniProt Q8NHJ6 22-448). The experiment is described as follows: cell-based or functional assay.
Experiment [2] addresses T1, human LILRB4. The experiment is described as follows: cell-based or functional assay. This is another data set of the same source.
Experiment [3] concerns the target T1, human LILRB4. Kind of experiment: cell-based or functional assay. This is another data set of the same source.
Experiment [4] deals with T1, human LILRB4. The experiment is described as follows: FACS, 293F-hLILRB4 cells. The protocol:
(§1) The protocol for FACS analysis is described as follows: [0438] (a) Cells were harvested by centrifugation at 300 g for 3 mins. […] (b) The cells were washed for 2 times with FACS buffer by centrifuging at 300 g for 3 mins and the supernatant was discarded. [0440] (c) Cell were resuspended and seeded into assay plate (2×10⁵ cells/well) in 50 μl FACS buffer. […] Cells were incubated with antibodies at 4° C. for 1 hour. […] (d) Step (b) was repeated and the cells were resuspended with 100 μl diluted 2nd antibody, incubated at 4° C. for 1 hour in the dark. [0442] (e) Step (b) was repeated and the cells were resuspended with 100 μl FACS buffer. The cells were kept in dark for FACS analysis.

The target of experiment [5] is T2, human LILRA1 (human, UniProt O75019 17-489).
T2 construct: whole, on cells; also called hLILRA1
The experiment is described as follows: FACS, 293F-hLILRA1 cells. Background: In flow cytometry, cells or beads pass a laser one at a time.

Experiment [6] has as its target T3, human LILRA2 (human, UniProt Q8N149 24-483).
T3 construct: whole, on cells; also called hLILRA2
The experiment is described as follows: FACS, 293F-hLILRA2 cells.

Experiment [7] has as its target T4, human LILRA3 (human, UniProt Q8N6C8 24-439).
T4 construct: whole, on cells; also called hLILRA3
Kind of experiment: FACS, 293F-hLILRA3 cells.

For experiment [8], the target named is T5, human LILRA4 (human, UniProt P59901 24-499).
T5 construct: whole, on cells; also called hLILRA4
Kind of experiment: FACS, 293F-hLILRA4 cells.

The target in experiment [9] is T6, human LILRA5 (human, UniProt A6NI73 42-299).
T6 construct: whole, on cells; also called hLILRA5
Kind of experiment: FACS, 293F-hLILRA5 cells.

Experiment [10] has as its target T7, human LILRB1 (human, UniProt Q8NHL6 24-650).
T7 construct: whole, on cells; also called hLILRB1
The experiment is described as follows: FACS, 293F-hLILRB1 cells.

Experiment [11] concerns the target T8, human LILRB2 (human, UniProt Q8N423 22-597).
T8 construct: whole, on cells; also called hLILRB2
The experiment is described as follows: FACS, 293F-hLILRB2 cells.

The target in experiment [12] is T1, human LILRB4. The experiment is described as follows: FACS, 293F-hLILRB4 cells. The procedure: The subcloning plates were screened by protein or cell-based ELISA, and the subclones with good binding ability were expanded to 24-wells for confirmation tests. The specificity and cross-reactivity of these subclones were confirmed with FACS analysis. […] Fluorescent dye-conjugated secondary antibody was used to detect the binding of the primary antibody with the cells. Median fluorescence intensity (MFI) was measured by FACS analysis. […]
This is another data set of the same source.

The target in experiment [13] is T9, human LILRB5 (human, UniProt O75023 24-590).
T9 construct: whole, on cells; also called hLILRB5
Kind of experiment: FACS, 293F-hLILRB5 cells.

Experiment [14] has as its target T10, human LILRB3 (human, UniProt O75022 24-631).
T10 construct: whole, on cells; also called hLILRB3
Kind of experiment: FACS, 293F-hLILRB3 cells.

Experiment [15] has as its target T10, human LILRB3. The experiment is described as follows: FACS, 293F-hLILRB3 cells. The protocol:
as §1
This is another data set of the same source.

T10 sequence (O75022 24-631): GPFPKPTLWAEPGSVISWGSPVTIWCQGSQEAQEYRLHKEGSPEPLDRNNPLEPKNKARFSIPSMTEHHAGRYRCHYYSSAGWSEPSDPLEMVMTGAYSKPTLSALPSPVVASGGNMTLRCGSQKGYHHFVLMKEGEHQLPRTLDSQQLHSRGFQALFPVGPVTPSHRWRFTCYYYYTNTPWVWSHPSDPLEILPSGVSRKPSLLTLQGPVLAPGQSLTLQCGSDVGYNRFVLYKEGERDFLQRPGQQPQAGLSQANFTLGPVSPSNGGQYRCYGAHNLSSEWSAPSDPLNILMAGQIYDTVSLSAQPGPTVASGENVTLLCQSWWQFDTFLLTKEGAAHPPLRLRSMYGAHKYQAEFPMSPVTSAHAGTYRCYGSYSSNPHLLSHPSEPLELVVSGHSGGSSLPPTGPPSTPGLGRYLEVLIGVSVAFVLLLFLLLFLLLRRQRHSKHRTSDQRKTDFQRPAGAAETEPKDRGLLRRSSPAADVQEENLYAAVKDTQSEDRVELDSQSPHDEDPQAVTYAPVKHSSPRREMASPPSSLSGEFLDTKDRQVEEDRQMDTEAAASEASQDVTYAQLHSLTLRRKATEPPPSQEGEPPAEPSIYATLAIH
T8 sequence (Q8N423 22-597): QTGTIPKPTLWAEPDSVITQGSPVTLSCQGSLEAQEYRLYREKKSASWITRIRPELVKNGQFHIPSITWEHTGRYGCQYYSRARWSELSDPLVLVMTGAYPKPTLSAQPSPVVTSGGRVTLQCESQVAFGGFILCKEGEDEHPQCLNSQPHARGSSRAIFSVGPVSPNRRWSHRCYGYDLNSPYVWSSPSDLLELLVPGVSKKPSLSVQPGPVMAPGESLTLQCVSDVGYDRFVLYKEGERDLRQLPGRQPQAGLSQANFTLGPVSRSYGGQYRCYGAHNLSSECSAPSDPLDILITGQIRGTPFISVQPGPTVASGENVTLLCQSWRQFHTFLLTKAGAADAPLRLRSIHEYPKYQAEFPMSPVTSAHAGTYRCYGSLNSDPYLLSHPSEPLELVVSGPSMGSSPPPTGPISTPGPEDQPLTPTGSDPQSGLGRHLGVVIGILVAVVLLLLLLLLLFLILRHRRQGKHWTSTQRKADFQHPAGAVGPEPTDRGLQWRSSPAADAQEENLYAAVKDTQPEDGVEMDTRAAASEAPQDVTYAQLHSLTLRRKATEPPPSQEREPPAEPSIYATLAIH
T4 sequence (Q8N6C8 24-439): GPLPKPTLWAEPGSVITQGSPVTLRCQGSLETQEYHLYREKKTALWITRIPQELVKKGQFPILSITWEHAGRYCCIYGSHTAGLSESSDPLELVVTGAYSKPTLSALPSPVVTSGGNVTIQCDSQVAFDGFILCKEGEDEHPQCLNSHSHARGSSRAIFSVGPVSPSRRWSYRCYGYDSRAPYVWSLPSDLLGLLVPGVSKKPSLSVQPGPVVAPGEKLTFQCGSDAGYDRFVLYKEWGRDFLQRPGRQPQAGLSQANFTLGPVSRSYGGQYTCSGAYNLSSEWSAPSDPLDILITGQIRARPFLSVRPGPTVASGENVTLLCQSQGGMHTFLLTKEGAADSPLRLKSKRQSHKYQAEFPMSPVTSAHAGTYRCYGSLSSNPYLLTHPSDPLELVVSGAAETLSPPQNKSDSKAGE
T2 sequence (O75019 17-489): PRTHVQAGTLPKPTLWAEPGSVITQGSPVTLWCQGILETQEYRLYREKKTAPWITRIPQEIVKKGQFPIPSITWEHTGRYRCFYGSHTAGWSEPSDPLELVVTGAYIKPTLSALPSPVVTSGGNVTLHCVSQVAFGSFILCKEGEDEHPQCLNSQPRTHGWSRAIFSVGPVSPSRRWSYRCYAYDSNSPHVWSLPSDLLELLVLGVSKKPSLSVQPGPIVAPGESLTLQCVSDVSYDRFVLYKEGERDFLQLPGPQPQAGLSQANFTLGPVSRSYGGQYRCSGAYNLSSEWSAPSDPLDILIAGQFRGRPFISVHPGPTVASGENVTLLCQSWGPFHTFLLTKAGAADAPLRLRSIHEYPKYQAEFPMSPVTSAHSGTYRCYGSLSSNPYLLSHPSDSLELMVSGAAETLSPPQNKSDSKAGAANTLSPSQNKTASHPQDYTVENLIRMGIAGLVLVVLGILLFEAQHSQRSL
T9 sequence (O75023 24-590): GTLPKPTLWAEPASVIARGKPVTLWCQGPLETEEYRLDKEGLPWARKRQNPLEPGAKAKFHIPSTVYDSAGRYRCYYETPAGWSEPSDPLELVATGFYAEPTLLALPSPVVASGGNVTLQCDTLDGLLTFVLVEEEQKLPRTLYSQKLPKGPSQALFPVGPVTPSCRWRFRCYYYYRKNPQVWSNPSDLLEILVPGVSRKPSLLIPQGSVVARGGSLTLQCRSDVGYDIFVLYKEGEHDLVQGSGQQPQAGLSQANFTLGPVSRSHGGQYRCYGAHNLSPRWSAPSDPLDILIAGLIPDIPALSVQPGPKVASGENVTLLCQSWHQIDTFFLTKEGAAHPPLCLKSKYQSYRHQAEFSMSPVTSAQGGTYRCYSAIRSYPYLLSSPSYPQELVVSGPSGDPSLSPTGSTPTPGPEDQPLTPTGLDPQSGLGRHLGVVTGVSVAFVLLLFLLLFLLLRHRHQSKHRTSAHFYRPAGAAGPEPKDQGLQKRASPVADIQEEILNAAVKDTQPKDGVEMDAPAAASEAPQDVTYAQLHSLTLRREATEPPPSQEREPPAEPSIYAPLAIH
T7 sequence (Q8NHL6 24-650): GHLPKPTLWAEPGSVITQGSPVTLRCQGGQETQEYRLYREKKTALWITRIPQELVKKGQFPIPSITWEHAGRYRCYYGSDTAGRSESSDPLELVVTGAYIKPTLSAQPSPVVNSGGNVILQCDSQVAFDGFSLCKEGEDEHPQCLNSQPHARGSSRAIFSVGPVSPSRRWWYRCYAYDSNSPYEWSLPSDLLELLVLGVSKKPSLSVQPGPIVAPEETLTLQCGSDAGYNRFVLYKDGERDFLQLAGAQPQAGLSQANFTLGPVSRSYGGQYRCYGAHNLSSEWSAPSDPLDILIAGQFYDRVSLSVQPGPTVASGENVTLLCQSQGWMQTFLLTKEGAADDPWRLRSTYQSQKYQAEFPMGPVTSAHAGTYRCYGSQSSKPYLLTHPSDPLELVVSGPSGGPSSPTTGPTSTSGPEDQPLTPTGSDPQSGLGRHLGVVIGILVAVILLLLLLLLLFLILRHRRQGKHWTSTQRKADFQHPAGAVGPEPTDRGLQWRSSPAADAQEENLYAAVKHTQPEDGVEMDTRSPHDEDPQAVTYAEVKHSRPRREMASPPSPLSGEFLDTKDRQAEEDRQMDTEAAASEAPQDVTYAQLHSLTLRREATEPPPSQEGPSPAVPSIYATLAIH
T6 sequence (A6NI73 42-299): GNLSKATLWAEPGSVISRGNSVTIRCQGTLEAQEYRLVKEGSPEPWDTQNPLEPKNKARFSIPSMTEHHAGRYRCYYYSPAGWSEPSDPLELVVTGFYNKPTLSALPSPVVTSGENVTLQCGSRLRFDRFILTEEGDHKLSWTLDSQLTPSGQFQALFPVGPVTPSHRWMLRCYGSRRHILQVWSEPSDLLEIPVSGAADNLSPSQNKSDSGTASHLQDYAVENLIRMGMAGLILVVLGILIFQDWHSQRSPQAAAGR
T5 sequence (P59901 24-499): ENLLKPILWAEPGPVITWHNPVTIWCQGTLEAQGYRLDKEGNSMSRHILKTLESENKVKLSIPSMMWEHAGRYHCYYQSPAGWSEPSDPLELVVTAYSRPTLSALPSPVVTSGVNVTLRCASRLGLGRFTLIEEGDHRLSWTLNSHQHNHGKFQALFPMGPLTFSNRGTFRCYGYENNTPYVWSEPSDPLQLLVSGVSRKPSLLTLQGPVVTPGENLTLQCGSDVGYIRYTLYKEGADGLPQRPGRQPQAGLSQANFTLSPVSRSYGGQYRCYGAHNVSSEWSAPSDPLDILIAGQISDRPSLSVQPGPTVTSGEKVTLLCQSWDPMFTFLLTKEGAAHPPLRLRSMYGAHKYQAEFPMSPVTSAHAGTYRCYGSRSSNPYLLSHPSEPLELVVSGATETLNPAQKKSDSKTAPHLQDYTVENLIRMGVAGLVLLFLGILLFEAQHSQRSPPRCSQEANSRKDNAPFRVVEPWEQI
T3 sequence (Q8N149 24-483): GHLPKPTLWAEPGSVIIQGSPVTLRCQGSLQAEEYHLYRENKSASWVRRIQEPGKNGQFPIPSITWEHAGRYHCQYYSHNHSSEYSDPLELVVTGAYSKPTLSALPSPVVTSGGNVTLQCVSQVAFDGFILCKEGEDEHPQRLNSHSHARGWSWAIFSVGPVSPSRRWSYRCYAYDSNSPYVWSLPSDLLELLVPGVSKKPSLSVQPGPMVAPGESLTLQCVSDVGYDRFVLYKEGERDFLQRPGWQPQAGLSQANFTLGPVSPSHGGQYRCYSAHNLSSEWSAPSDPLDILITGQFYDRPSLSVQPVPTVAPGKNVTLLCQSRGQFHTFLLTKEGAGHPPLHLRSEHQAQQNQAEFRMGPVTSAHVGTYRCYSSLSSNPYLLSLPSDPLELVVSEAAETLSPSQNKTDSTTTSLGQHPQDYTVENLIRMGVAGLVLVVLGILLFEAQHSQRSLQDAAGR

B1: ch43-D12-F3-G11 (antibody, V domains shown)
VH: EVQVVESGPGLVAPSQSLSITCTVSGFSLTSYGVSWVRQPPGKGLEWLGVIWADGSTNYHSALLSRLSISKDNSKSQVFLKLNSLQTDDTATYYCAKGHWDGFAYWGQGTLVAVSA
VL: DIVLTQSPAIMSTSPGEKVTLTCSASSSITSSYLYWYQQKPGSSPKLWIYSTSNLASGVPARFSGSGSGTSYYLTISSMEAEDAASYFCHQWSSYPPTFGGGTKLELK
As usually defined, the EC50 is the concentration needed to bring the measured effect to its halfway point. Low readings indicate an effect from little substance, high ones a need for much substance. On to B1, for which, in experiment [1], the “EC50 (nM), ADCC on THP-1 cells” value came out at 4.14 nM and the “Max cell cytotoxicity (%), ADCC on THP-1 cells” value came out at 2.39%. In addition, the “ADCP (%) at 133.3 nM, macrophages and MV-4-11 cells” value (“ADCP (%) at 133.3 nM” below) in experiment [2] was found to be 18.2%. For the same molecule, in experiment [3], the “FcγR stimulation (TNF-α, pg/mL)” value stood at 215 pg/mL and the “Fold change (Compared to isotype)” value was determined as 6.81 fold. Besides, in experiment [4], the response was half-maximal at 2.91 nM (EC50) and the “Max MFI” value came to 48000 MFI.

B2: 43-D12-F3-G11 (antibody, V domains shown)
VH: EVQVVESGPGLVAPSQSLSITCTVSGFSLTSYGVSWVRQPPGKGLEWLGVIWADGSTNYHSALLSRLSISKDNSKSQVFLKLNSLQTDDTATYYCAKGHWDGFAYWGQGTLVAVSA
VL: DIVLTQSPAIMSTSPGEKVTLTCSASSSITSSYLYWYQQKPGSSPKLWIYSTSNLASGVPARFSGSGSGTSYYLTISSMEAEDAASYFCHQWSSYPPTFGGGTKLELK
notes: mouse monoclonal hybridoma antibody
On to B2, for which the MFI in experiment [5] was 22.2 MFI; in experiment [6] it was 20 MFI; in experiment [7] it was 20.2 MFI; in experiment [8] it was 21.2 MFI; in experiment [9], 172 MFI; in experiment [10], 22.6 MFI. Also, the results for the MFI in [11], in experiment [12] and in experiment [13] were 30.4 MFI, 727 MFI and 17.9 MFI, respectively.

B3: 25-E7-A10-H6 (antibody, V domains shown)
VH: EVQLVESGGGLVQPGGSRKLSCAASGFTFSTFGMHWVRQAPEKGLEWVAYISSGSSTIYYADTVKGRFTISRDNPKNTLFLQMTSLRSEDTAMYYCARSTGTGAMDYWGQGTSVTVSS
VL: DIQMTQTTSSLSASLGDRVTISCRASQDISKYLNWYQQKPDGTVKLLIYYTSRLHSGVPSRFSGSGSGTDYSLTISNLEQEDIATYFCQQGNTLPWTFGGGTKLEIK
notes: as for B2
For the molecule B3, the MFI in experiment [5] is 23.1 MFI; in experiment [6] it was 21 MFI; in experiment [7], 20.1 MFI; in [8], 19.9 MFI; in [9], 19.9 MFI; in experiment [10], 22.5 MFI. For the same molecule, the MFI in experiment [11] was 33.2 MFI; in experiment [14], 23.1 MFI; in experiment [12] it was 759 MFI; in experiment [13], 16.3 MFI.

B4: 27-G5-E9-B8 (antibody, V domains shown)
VH: EVQLVESGGGLVQPGGSRKLSCAASGFTFSSFGMHWVRQAPEKGLEWVAYISSGSSTIYYADTVKGRFTISRDNPKNTLFLQMTSLRSEDTAMYYCARSTGTGAMDYWGQGTSVTVSS
VL: DIQMTQTTSSLSASLGDSVTFSCRASQDISNYLNWYQQKPDGTVKLLISYTSRLHSGVPSRFSGSGSGTDYSLTISNLEQEDIATYFCQQGNALPWTFGGGTKLEIK
notes: as for B2
On to B4, for which the MFI is 24 MFI in experiment [5]; 17.7 MFI in [6]; 19.5 MFI in [7]; 19.1 MFI in experiment [9]; 20.2 MFI in [10]; 25.4 MFI in experiment [11]. The MFI in experiment [14] amounted to 23.7 MFI; in experiment [12] it was 213 MFI; in experiment [13], 18.7 MFI.

B5: 27-F11-E10-G10 (antibody, V domains shown)
VH: EVQLVESGGGLVQPGGSRKLSCAASGFTFSSFGMHWVRQAPEKGLEWVAYISSGSSTIYYADTVKGRFSISRDNPKNTLFLQMTSLRSEDTAMFYCARSTGTGAMDYWGQGTSVTVSS
VL: DIQMTQTTSSLSASLGDRVTISCRASQDISNYLNWYQQKPDGTVKLLIYYTSRLHSGVPSRFSGSGSGTDYSLTISNLEQEDIATYFCQQGNTLPWTFGGGTKLELK
notes: as for B2
For the molecule B5, the MFI amounted to 22.1 MFI in experiment [5]; 17.3 MFI in [6]; 19.1 MFI in experiment [7]; 19.7 MFI in [8]; 21.1 MFI in experiment [10]; 27.7 MFI in experiment [11]. Besides, the MFI is 24.9 MFI in experiment [14], 512 MFI in experiment [12] and 19.5 MFI in experiment [13].

B6: 2-H1-D7-E5-D5 (antibody, V domains shown)
VH: EVHLVESGGGLVQPGGSRKLSCAASGFTFSSFGMHWVRQPPEKGLEWVAYISSGSSSIYYADTVKGRFTISRDNPKNTLFLQMTSLRSEDTAMYYCARGTGTGAMDYWGQGTSVTVSS
VL: DIQMTQTTSSLSASLGDRVTISCRTSQDISNYLNWYQQKPDGTVKLLIYYTSKLHSGVPSRFSGSGSGTDYSLTISNLDQEDIATYFCQQGNTLPWTFGGGTKLEIK
notes: as for B2
For the molecule B6, the MFI in [5] turned out to be 21.9 MFI; in experiment [6] it was 20 MFI; in [7], 20 MFI; in experiment [8] it was 23.7 MFI; in experiment [9], 24.7 MFI; in experiment [10], 25.2 MFI. In addition, the MFI in experiment [11] came out at 31.5 MFI; in experiment [14], 23 MFI; in experiment [12], 915 MFI; in experiment [13] it was 22.6 MFI.

B7: 10-H9-E3-G3 (antibody, V domains shown)
VH: EVQRVESGGGLVQPGGSRKLSCAASGFTFSSFGMHWVRQAPEKGLEWVAYISSGSSAMYYADTVKGRFTISRDNPKNTLFLQMTSLRSEDTAMYYCARSDGKGAMDYWGQGTSVTVSS
VL: DIQMTQTTSSLSASLGDRVTISCRASQDISNYLNWYQQKPDGTVKLLVYYTSRLHSGVPSRFSGSGSGTDYSLTISNLEQEDIATYFCQQGNTLPWTFGGGTKLEIK
notes: as for B2
With B7, the MFI in experiment [5] was found to be 21.6 MFI; in experiment [6], 19.9 MFI; in experiment [7], 18.3 MFI; in [8], 20.7 MFI; in [9], 25 MFI; in experiment [10] it was 21 MFI. For the same molecule, the MFI in [11] is 29.5 MFI; in [14], 22.7 MFI; in experiment [12], 210 MFI; in experiment [13] it was 21.8 MFI.

B8: ch48-E11-H7-B5 (antibody, V domains shown)
VH: EVQLVESGGGLVKPGGSLKLSCAASGFTFSSYAMSWVRQTPEKRLEWVASITIGDDTYYPDSVKGRFTISRDHAKNILYLQVSSLRSEDTAMYSCARGVNSYGSSYRYFDVWGAGTTVTVSS
VL: DIVMTQSHKFMSTSVGDRVSITCKASQDVSTAVAWYQQKPGQSPKLLIYWASTRHTGVPDRFTGSGSGTDYTLTISSVQAEDLALYYCQQHYSIPFTFGAGTKLEK
As to B8, in experiment [2], the “ADCP (%) at 133.3 nM” value stood at 18%. Also, in experiment [3], the “FcγR stimulation (TNF-α, pg/mL)” value came out at 1310 pg/mL and the “Fold change (Compared to isotype)” value turned out to be 41.4 fold. In addition, the binding result in experiment [15] is “no binding (tested: up to 66.67 nM)”. Besides, in experiment [4], the EC50 came out at 4.05 nM and the “Max MFI” value is 53700 MFI.

B9: ch8-B3-F6-H8 (antibody, V domains shown)
VH: EVKVIESGGGLVQPGGSLKLSCAASGFDFSRYWMSWVRQAPGKGLEWIGEINPDSSAINYTPSLKDKFIISRDNAKNTLYLQMSKVRSEDTALYYCATSMTMDYWGQGTSVTVSS
VL: DIVMTQSPSSMYASLGERVTITCKASQDIKSYLSWYQQKPWKSPKTLIYYATSLADGVPSRFSGSGSGQDYSLTISSLESDDTATYYCLQHGESPYTFGGGTKLEK
On to B9, for which, in [1], the “Max cell cytotoxicity (%), ADCC on THP-1 cells” value came out at 7.1%. Besides, the “ADCP (%) at 133.3 nM” value in experiment [2] came to 4.59%. Further, in experiment [3], the “FcγR stimulation (TNF-α, pg/mL)” value is 391 pg/mL and the “Fold change (Compared to isotype)” value stood at 12.4 fold. Further, in experiment [4], the EC50 is 2.05 nM and the “Max MFI” value amounted to 48500 MFI.

B10: 8-B3-F6-H8 (antibody, V domains shown)
VH: EVKVIESGGGLVQPGGSLKLSCAASGFDFSRYWMSWVRQAPGKGLEWIGEINPDSSAINYTPSLKDKFIISRDNAKNTLYLQMSKVRSEDTALYYCATSMTMDYWGQGTSVTVSS
VL: DIVMTQSPSSMYASLGERVTITCKASQDIKSYLSWYQQKPWKSPKTLIYYATSLADGVPSRFSGSGSGQDYSLTISSLESDDTATYYCLQHGESPYTFGGGTKLEK
notes: as for B2
Consider B10, for which the MFI in experiment [5] stood at 22.2 MFI; in experiment [6] it was 19.6 MFI; in experiment [7] it was 20 MFI; in experiment [8], 19.5 MFI; in experiment [9], 24.5 MFI; in experiment [10] it was 19.4 MFI. Besides, the MFI is 29.5 MFI in [11], 1060 MFI in experiment [12] and 16.8 MFI in [13].
